± gives the uncertainty stated by the source.
Experiment: self-splicing fitness, log relative to wild type (ln ratio); higher = more splicing; Tetrahymena group I intron in knt gene, E. coli kanamycin selection, DiMSum; sequences stand for … in CUCUCU…GGAGGGAAAAGUUAUCAGGCAUGCACCUGGUAGCUAGUCUUUAAACCAAUAGAUUGCAUCGGUUUAAAAGGCAAGACCGUCAAAUUGCGGGAAAGGGGUCAACAGCCGUUCAGUACCAAGUCUCAGGGGAAACUUUGAGAUGGCCUUGCAAAGGGUAUGGUAAUAAGCUGACGGACAUGGUCCUAACCACGCAGCCAAGUCCUAAGUCAACAGAUCUUCUGUUGAUAUGGAUGCAGUUCACAGACUAAAUGUCGGUCGGGGAAGAUGUAUUCUUCUCAUAAGAUAUAGUCGGACCUCUCCUUAAUGGGAGCUAGCGGAUGAAGUGAUGCAACACUGGAGCCGCUGGGAACUAAUUUGUAUGCGAAAGUAUAUUGAUUAGUUUUGGAGUACUCGUGGUCG
Outline: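 Six replicate transformations of E. coli BL21(DE3) with a pET-22b(+) library were grown overnight at 37°C or 30°C. The library randomised all eight P1ex-region intron nucleotides, the intron lying in the knt kanamycin-resistance gene, and plates were LB agar with or without 25 μg/mL kanamycin plus 100 μg/mL carbenicillin, 50 μM IPTG and 0.2% rhamnose. Pooled colonies were amplicon-sequenced on an Illumina HiSeq 2500, and fitness is the DiMSum error-weighted combination of wild-type-normalised replicate fold changes, kanamycin versus none.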

Sequence | self-splicing fitness (ln) (30 °C) | self-splicing fitness (ln) (37 °C)
GUCGAGCAAUAUUACGGGGU | -1.92 ± 0.16 | -1.74 ± 0.18
GUCGAGCAAUAUUACGGUAA | -1.74 ± 0.19 | -2.18 ± 0.19
GUCGAGCAAUAUUACGGUGC | -2.4 ± 0.16 | -0.222 ± 0.13
GUCGAGCAAUAUUACGUAAC | -0.996 ± 0.13 | -0.434 ± 0.14
GUCGAGCAAUAUUACGUAAU | -0.411 ± 0.065 | -0.515 ± 0.09
GUCGAGCAAUAUUACGUAGU | -2.34 ± 0.12 | -1.47 ± 0.11
GUCGAGCAAUAUUACGUCUU | -2 ± 0.1 | -1.39 ± 0.09
GUCGAGCAAUAUUACGUGUC | -2.18 ± 0.08 | -1.6 ± 0.077
GUCGAGCAAUAUUACGUGUU | -4.22 ± 0.28 | -2.09 ± 0.25
GUCGAGCAAUAUUACGUUCC | -1.99 ± 0.24 | -0.593 ± 0.37
GUCGAGCAAUAUUACGUUUU | -3.92 ± 0.32 | -2.07 ± 0.19
GUCUAGCAAUAUUACGACGG | -3.01 ± 0.29 | -2.45 ± 0.27
GUCUAGCAAUAUUACGACUG | -2.39 ± 0.23 | -2.73 ± 0.31
GUCUAGCAAUAUUACGAGGG | -3.1 ± 0.11 | -1.57 ± 0.09
GUCUAGCAAUAUUACGAUCC | -0.754 ± 0.16 | 0.0678 ± 0.24
GUCUAGCAAUAUUACGAUGC | 0.169 ± 0.14 | -0.841 ± 0.13
GUCUAGCAAUAUUACGAUUC | -0.168 ± 0.094 | 0.284 ± 0.1
GUCUAGCAAUAUUACGCAAG | – | -1.66 ± 0.38
GUCUAGCAAUAUUACGCCAU | -2.11 ± 0.26 | -2.04 ± 0.18

Sequence | self-splicing fitness (ln) (30 °C) | self-splicing fitness (ln) (37 °C)
GUCUAGCAAUAUUACGCCCA | -0.688 ± 0.26 | -0.356 ± 0.26
GUCUAGCAAUAUUACGCCCG | -0.678 ± 0.27 | -0.293 ± 0.34
GUCUAGCAAUAUUACGCCGA | -1.65 ± 0.19 | -0.506 ± 0.15
GUCUAGCAAUAUUACGCCGU | -0.884 ± 0.23 | -0.0862 ± 0.26
GUCUAGCAAUAUUACGCGCA | -0.481 ± 0.098 | 0.157 ± 0.087
GUCUAGCAAUAUUACGCGGA | -2.61 ± 0.33 | -2.07 ± 0.27
GUCUAGCAAUAUUACGGAAU | -0.979 ± 0.11 | 0.135 ± 0.11
GUCUAGCAAUAUUACGGACC | -3.95 ± 0.46 | -0.565 ± 0.24
GUCUAGCAAUAUUACGGAGG | -3.98 ± 0.3 | -1.59 ± 0.18
GUCUAGCAAUAUUACGGAGU | -0.693 ± 0.096 | 0.121 ± 0.093
GUCUAGCAAUAUUACGGCGU | 0.142 ± 0.069 | 0.0882 ± 0.091
GUCUAGCAAUAUUACGGGCC | -3.14 ± 0.36 | –
GUCUAGCAAUAUUACGUAGU | -0.529 ± 0.087 | 0.276 ± 0.092
GUCUAGCAAUAUUACGUAUG | -2.94 ± 0.18 | -0.896 ± 0.13
GUCUAGCAAUAUUACGUCUG | -2.49 ± 0.14 | -1.51 ± 0.13
GUCUAGCAAUAUUACGUUAG | -2.42 ± 0.16 | -2.28 ± 0.21
GUCUAGCAAUAUUACGUUCA | -0.225 ± 0.11 | 0.35 ± 0.12
GUCUAGCAAUAUUACGUUCU | -0.494 ± 0.098 | -0.247 ± 0.11
GUCUAGCAAUAUUACGUUGC | -2.55 ± 0.42 | -0.754 ± 0.41
